{"source": "patent US20220088193A1", "about": "(AGONOX, published 2022)", "binders": {"B1": {"name": "P5-1 with mouse IgG2A Fc domains (antibody, V domains shown)", "VH": "EVQLVESGGGLVQPGGSLRLSCAASGFTFSSYYIHWVRQAPGKGLEWVAAISSSSGSTYYADSVKGRFTISADTSKNTAYLQMNSLRAEDTAVYYCARERYFYGDFVFDYWGQGTLVTVSS", "VL": "DIQMTQSPSSLSASVGDRVTITCRASQSVSSAVAWYQQKPGKAPKLLIYSASSLYSGVPSRFSGSRSGTDFTLTISSLQPEDFATYYCQQYYSSPLTFGQGTKVEIKR", "notes": "not shown: mouse IgG2A Fc domain"}, "B2": {"name": "P5-3 (antibody, V domains shown)", "VH": "EVQLVESGGGLVQPGGSLRLSCAASGFTFSSYYIHWVRQAPGKGLEWVAAISSSSGSTYYADSVKGRFTISADTSKNTAYLQMNSLRAEDTAVYYCAREDWHRYERRFYEGFDYWGQGTLVTVSS", "VL": "B1 VL"}, "B3": {"name": "P5-2 (antibody, V domains shown)", "VH": "B1 VH with R100V, Y101R, F102I, Y103H, F108L", "VL": "B1 VL", "notes": "also called parent Ab P5-2"}, "B4": {"name": "P5-4 with mouse IgG2A Fc domains (antibody, V domains shown)", "VH": "B1 VH with R100D, F102Y, Y103W", "VL": "B1 VL", "notes": "as for B1"}, "B5": {"name": "P5-2-2A with mouse IgG2A Fc domains (antibody, V domains shown)", "VH": "B1 VH with R100A, Y101R, Y103H, V107I, F108L", "VL": "B1 VL with S93I, S94T", "notes": "as for B1"}, "B6": {"name": "P5-1J with mouse IgG2A Fc domains (antibody, V domains shown)", "VH": "B1 VH with S31H, Y32H, S53T, S54G, S55G, S57T, Y103N, V107I, F108Y", "VL": "B1 VL with S94T", "notes": "as for B1"}, "B7": {"name": "P5-1J (antibody, V domains shown)", "VH": "B1 VH with S31H, Y32H, S53T, S54G, S55G, S57T, Y103N, V107I, F108Y", "VL": "B1 VL with S94T", "notes": "also called biotinylated P5-1J; unlabeled P5-1J"}}, "key": {"mouse CD55 [1]": {"molecular_target": "T1, mouse CD55 (mouse, UniProt Q61475 35-362, limits assumed)", "T1 sequence (looked up)": "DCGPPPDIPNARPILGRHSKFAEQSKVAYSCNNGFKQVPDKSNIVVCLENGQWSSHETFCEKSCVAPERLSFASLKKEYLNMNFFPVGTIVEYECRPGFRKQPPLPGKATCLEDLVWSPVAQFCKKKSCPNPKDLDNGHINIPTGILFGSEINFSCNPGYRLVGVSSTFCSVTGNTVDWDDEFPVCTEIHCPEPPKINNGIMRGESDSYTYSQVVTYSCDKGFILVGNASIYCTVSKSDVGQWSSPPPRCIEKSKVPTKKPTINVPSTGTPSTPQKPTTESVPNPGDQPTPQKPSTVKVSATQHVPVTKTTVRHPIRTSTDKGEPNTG", "test": "ELISA on mouse CD55, HRP-anti-mouse secondary, A450; right panel 'Binding to mouse CD55 by ELISA', EC50 table below the graph", "text": "(§1) EC₅₀ values were obtained by fitting to a sigmoid non-linear equation, using PRISM. These human antibodies contained mouse IgG2A Fc domains for use in in vivo mouse tumor models and were detected by HRP-anti-mouse secondary antibodies.\nas §1"}, "human CD55 [2]": {"molecular_target": "T2, human CD55 (human, UniProt P08174 35-353, limits assumed)", "T2 construct": "also called Decay-Accelerating Factor; DAF", "T2 sequence (looked up)": "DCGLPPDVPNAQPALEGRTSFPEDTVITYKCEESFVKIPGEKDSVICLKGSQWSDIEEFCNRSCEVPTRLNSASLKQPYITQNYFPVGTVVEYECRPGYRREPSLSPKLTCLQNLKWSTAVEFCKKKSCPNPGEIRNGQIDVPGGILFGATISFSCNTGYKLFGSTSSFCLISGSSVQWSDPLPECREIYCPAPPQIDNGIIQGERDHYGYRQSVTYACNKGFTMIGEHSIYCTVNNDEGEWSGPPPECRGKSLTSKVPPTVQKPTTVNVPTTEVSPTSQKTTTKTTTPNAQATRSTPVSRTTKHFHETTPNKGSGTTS", "test": "ELISA on human CD55, HRP-anti-mouse secondary, A450; left panel 'Binding to human CD55 by ELISA', EC50 table below the graph", "text": "as §1, §1"}, "human CD55 [3]": {"molecular_target": "T2, human CD55", "test": "library screen, species specificity summary"}, "mouse CD55 [4]": {"molecular_target": "T1, mouse CD55", "test": "ELISA on mouse CD55, HRP-anti-mouse secondary, A450; right panel 'Binding to mouse CD55 by ELISA'", "text": "as §1, §1"}, "Plate-bound CD55 [5]": {"molecular_target": "T3, Plate-bound CD55 (Homo sapiens (Human), UniProt P08174 35-353)", "T3 sequence": "T2 sequence (looked up)", "test": "competition ELISA on plate-bound CD55, streptavidin-HRP, A450; plate pre-incubated with unlabeled competitor P5-1J at 1.0 ug/ml", "procedure": "(§2) FIG. 3: Competition ELISA data for comparing the epitopes of the mouse+human CD55 binding antibodies.\n(§3) Comparison of the epitopes of the mouse+human CD55-binding antibodies was performed by competition ELISA."}, "Plate-bound CD55 [6]": {"molecular_target": "T3, Plate-bound CD55", "test": "competition ELISA; plate-bound CD55 pre-incubated with the unlabeled competitor P5-1J, washed, biotinylated P5-1J titrated, Streptavidin-HRP", "procedure": "as §2, §3"}, "Plate-bound CD55 [7]": {"molecular_target": "T3, Plate-bound CD55", "test": "competition ELISA on plate-bound CD55, streptavidin-HRP, A450; plate pre-incubated with control competitor mIgG2A at 1.0 ug/ml (curve lies on that of None)", "procedure": "as §2, §3"}, "Plate-bound CD55 [8]": {"molecular_target": "T3, Plate-bound CD55", "test": "competition ELISA; plate-bound CD55 pre-incubated with the unlabeled competitor P5-2-2A, washed, biotinylated P5-1J titrated, Streptavidin-HRP", "procedure": "as §2, §3"}, "Plate-bound CD55 [9]": {"molecular_target": "T3, Plate-bound CD55", "test": "competition ELISA on plate-bound CD55, streptavidin-HRP, A450; plate pre-incubated with unlabeled competitor P5-2-2A at 1.0 ug/ml", "procedure": "as §2, §3"}, "Plate-bound CD55 [10]": {"molecular_target": "T3, Plate-bound CD55", "test": "competition ELISA on plate-bound CD55, streptavidin-HRP, A450; competitor antibody: None", "procedure": "as §2, §3"}, "Plate-bound CD55 [11]": {"molecular_target": "T3, Plate-bound CD55", "test": "competition ELISA on plate-bound CD55, streptavidin-HRP, A450; plate pre-incubated with unlabeled competitor P5-4 at 1.0 ug/ml", "procedure": "as §2, §3"}}, "note": "Where a chain is given by its changes, count along the chain named."}
{"binder": "B1", "values": [{"measurement": "EC50", "setting": "mouse CD55 [1]", "value": 3.46, "unit": "ng/mL"}, {"measurement": "EC50", "setting": "human CD55 [2]", "value": 4.27, "unit": "ng/mL"}]}
{"binder": "B2", "values": [{"measurement": "binding result", "setting": "human CD55 [3]", "value": "binds"}]}
{"binder": "B3", "values": [{"measurement": "binding result", "setting": "human CD55 [3]", "value": "binds"}]}
{"binder": "B4", "values": [{"measurement": "EC50", "setting": "mouse CD55 [1]", "value": 22.7, "unit": "ng/mL"}, {"measurement": "EC50", "setting": "human CD55 [2]", "value": 3.68, "unit": "ng/mL"}]}
{"binder": "B5", "values": [{"measurement": "EC50 (read off the curve)", "setting": "mouse CD55 [4]", "value": "~6", "unit": "ng/mL"}, {"measurement": "EC50", "setting": "human CD55 [2]", "value": 4.72, "unit": "ng/mL"}]}
{"binder": "B6", "values": [{"measurement": "EC50", "setting": "mouse CD55 [1]", "value": 3.21, "unit": "ng/mL"}, {"measurement": "EC50", "setting": "human CD55 [2]", "value": 4.07, "unit": "ng/mL"}]}
{"binder": "B7", "values": [{"measurement": "EC50", "setting": "Plate-bound CD55 [5]", "value": 108, "unit": "ng/mL"}, {"measurement": "fold shift in EC50", "setting": "Plate-bound CD55 [6]", "value": 100, "unit": "fold"}, {"measurement": "EC50", "setting": "Plate-bound CD55 [7]", "value": 1.96, "unit": "ng/mL"}, {"measurement": "fold shift in EC50", "setting": "Plate-bound CD55 [8]", "value": 20, "unit": "fold"}, {"measurement": "EC50", "setting": "Plate-bound CD55 [9]", "value": 21.4, "unit": "ng/mL"}, {"measurement": "EC50", "setting": "Plate-bound CD55 [10]", "value": 2.13, "unit": "ng/mL"}, {"measurement": "EC50", "setting": "Plate-bound CD55 [11]", "value": 24.1, "unit": "ng/mL"}]}
